The values that follow come from paper PMC3407131, “Annexin A2 Is a Natural Extrahepatic Inhibitor of the PCSK9-Induced LDL Receptor Degradation” (PLoS ONE, 2012).

In this assay the target is T1, biotin-labeled human PCSK9 protein (residues 30–692) (human, UniProt Q8NBP7 30-692, biotin-labeled (site not stated)).
T1 construct: PCSK9, human, residues 30–692; written as one chain; Held on streptavidin donor beads by the biotin; also called biotinylated PCSK9; full length PCSK9; source: baculovirus expression, purified recombinant
T1 sequence (Q8NBP7 30-692): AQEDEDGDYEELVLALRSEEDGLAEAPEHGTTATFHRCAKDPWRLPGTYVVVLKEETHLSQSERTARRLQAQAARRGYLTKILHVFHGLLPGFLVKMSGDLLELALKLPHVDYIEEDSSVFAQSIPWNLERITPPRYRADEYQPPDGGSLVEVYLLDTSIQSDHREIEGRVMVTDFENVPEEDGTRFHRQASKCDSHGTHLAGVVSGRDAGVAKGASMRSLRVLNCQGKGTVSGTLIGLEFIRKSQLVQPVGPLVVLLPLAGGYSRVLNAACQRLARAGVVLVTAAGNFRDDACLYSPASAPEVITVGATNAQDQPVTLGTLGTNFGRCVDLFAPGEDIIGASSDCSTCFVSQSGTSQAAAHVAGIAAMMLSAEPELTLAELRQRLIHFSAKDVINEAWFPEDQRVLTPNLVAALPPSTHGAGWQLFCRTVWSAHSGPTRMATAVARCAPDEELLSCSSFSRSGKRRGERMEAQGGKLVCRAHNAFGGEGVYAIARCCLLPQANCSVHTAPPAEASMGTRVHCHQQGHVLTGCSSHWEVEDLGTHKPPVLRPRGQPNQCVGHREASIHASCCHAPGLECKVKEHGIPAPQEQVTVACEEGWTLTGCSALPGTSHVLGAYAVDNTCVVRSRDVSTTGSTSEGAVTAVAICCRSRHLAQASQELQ
In words: AlphaScreen or HTRF; competition: biotin-PCSK9 (15 nM) and His-LDLR ectodomain (15 nM) mixed with increasing AnxA2 peptide, 60 min at 20°C in 25 mM Hepes pH 7.4, 100 mM NaCl, 0.5 mM CaCl2, 0.1% BSA; streptavidin donor and nickel chelate acceptor beads, overnight at 20°C. Conditions: both partners purified.

B1: intermediate 49 aa AnxA2 peptide (residues 49–97) (peptide, UniProt P07355 49-97, looked up)
peptide: Ac-KGVDEVTIVNILTNRSNAQRQDIAFAYQRRTKKELASALKSALSGHLET-NH2
notes: annexin A2 (AnxA2), residues 49–97 of the R1 domain; also called intermediate length peptide (49–97); aa 49–97 peptide; source: synthetic peptide (solid phase synthesis, RP-HPLC purified)
Turning to B1, the “fold lower apparent potency than the peptide 25–97” value is around 20 fold.

B2: 73 aa peptide corresponding to the AnxA2 R1 domain (residues 25–97) (peptide, UniProt P07355 25-97, looked up)
peptide: GSVKAYTNFDAERDALNIETAIKTKGVDEVTIVNILTNRSNAQRQDIAFAYQRRTKKELASALKSALSGHLET
modifications: N-terminus acetylated; C-terminal amide
notes: annexin A2 (AnxA2), residues 25–97 of the R1 domain; also called 73-mer AnxA2 peptide (aa 25–97); long peptide form; source: synthetic peptide (solid phase synthesis, RP-HPLC purified)
Turning to B2, the IC50 was around 600 nM.
